Results on 7 molecules are retold here after paper PMC1140370.

Read-outs that look alike come from different tables or passages of the source.

Common to all, as to assay: EMSA
In data set [1] the target is T1, Mcm4/6/7 complex (mouse, UniProt P49717;Q61881;P97311 1-862;1-719;1-821).
In data set [2] the target is T1, Mcm4/6/7 complex. This is another data set of the same source.
Data set [3] has as its target T1, Mcm4/6/7 complex. The source holds these as a separate data set.
In data set [4] the target is T1, Mcm4/6/7 complex. The source holds these as a separate data set.
Data set [5] addresses T1, Mcm4/6/7 complex. The source holds these as a separate data set.

T1 sequence (P49717 whole entry, chain 1 of 3): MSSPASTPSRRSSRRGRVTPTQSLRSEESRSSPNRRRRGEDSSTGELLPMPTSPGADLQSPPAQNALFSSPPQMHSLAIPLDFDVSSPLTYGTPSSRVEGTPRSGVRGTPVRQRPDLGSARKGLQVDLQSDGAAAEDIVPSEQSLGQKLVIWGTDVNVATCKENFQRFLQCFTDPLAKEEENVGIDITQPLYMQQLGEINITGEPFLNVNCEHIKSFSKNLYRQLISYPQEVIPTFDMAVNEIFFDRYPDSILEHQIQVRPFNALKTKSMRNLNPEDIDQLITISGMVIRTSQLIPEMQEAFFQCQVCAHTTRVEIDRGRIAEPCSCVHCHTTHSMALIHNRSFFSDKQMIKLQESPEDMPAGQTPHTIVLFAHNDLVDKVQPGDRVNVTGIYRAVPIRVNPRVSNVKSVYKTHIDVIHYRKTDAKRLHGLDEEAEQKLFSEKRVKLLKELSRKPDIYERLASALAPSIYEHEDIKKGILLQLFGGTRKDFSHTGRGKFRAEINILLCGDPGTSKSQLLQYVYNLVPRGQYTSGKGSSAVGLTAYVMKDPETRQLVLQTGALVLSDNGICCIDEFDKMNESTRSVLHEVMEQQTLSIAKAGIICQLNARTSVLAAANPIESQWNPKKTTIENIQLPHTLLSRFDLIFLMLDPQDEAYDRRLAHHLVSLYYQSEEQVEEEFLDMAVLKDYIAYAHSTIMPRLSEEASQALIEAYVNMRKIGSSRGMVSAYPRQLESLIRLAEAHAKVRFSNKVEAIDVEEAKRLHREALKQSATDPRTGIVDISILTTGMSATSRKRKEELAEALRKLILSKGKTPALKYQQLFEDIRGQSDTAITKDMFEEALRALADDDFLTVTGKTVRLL
T1 sequence (Q61881 whole entry, chain 2 of 3): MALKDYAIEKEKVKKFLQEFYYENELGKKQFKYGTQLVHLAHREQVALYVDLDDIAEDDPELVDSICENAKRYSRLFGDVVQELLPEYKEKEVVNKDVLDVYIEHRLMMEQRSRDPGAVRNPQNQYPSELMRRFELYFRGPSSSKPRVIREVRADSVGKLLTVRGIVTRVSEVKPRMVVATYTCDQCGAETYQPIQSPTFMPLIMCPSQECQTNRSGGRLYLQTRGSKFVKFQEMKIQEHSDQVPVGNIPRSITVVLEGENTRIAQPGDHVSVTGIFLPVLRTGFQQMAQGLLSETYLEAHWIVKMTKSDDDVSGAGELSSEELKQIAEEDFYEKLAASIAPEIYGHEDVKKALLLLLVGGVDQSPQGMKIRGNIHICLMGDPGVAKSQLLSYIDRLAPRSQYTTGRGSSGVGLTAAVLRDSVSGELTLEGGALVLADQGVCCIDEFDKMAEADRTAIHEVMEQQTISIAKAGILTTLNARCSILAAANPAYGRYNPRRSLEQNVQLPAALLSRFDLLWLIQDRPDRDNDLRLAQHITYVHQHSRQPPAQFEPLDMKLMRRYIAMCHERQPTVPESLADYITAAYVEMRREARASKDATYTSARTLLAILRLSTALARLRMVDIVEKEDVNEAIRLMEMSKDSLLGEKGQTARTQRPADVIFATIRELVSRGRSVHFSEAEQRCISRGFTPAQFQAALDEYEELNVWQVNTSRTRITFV
T1 sequence (P97311 whole entry, chain 3 of 3): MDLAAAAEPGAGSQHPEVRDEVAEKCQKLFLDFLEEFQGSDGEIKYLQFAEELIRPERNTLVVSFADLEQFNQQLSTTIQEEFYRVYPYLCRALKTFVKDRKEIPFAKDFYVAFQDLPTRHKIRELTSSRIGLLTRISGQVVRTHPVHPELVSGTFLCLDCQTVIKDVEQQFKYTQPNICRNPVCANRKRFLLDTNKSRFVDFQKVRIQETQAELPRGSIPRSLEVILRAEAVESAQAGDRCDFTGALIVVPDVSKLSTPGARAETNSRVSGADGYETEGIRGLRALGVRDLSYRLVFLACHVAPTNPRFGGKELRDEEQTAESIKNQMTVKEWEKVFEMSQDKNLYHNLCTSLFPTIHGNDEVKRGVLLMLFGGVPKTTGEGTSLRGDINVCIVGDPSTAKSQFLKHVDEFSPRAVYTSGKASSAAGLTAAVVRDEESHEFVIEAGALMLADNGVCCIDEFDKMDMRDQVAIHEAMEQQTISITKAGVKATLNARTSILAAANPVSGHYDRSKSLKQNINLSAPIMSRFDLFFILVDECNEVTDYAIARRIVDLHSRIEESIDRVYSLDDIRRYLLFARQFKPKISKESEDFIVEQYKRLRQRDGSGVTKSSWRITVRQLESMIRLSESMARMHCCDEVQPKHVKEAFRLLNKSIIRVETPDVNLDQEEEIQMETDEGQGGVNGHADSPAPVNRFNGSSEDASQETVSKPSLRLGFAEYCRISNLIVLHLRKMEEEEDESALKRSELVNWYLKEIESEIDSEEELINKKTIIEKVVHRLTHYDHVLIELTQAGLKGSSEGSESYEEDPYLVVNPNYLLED

B1: Bub-T20 (mixed)
DNA 1: GTTTTCCCAGTCACGACGTTGTAAAACGACTTTTTTTTTTTTTTTTTTTTTACCGAGCTCGAATTCGTAATCATGGTCAT
DNA 2: ATGACCATGATTACGAATTCGAGCTCGGTATTTTTTTTTTTTTTTTTTTTGTCGTTTTACAACGTCGTGACTGGGAAAAC
For B1, the binding result with Mcm4/6/7 complex [1] was “binds”.

B2: Bub-T50 (mixed)
DNA 1: GTTTTCCCAGTCACGACGTTGTAAAACGACTTTTTTTTTTTTTTTTTTTTTTTTTTTTTTTTTTTTTTTTTTTTTTTTTTTACCGAGCTCGAATTCGTAATCATGGTCAT
DNA 2: ATGACCATGATTACGAATTCGAGCTCGGTATTTTTTTTTTTTTTTTTTTTTTTTTTTTTTTTTTTTTTTTTTTTTTTTTTGTCGTTTTACAACGTCGTGACTGGGAAAAC
B2: the binding result with Mcm4/6/7 complex [2] is “binds”.

B3: 3' dT50-extension (mixed)
DNA 1: GTTTTCCCAGTCACGACGTTGTAAAACGACGGCCAGTTTTTTTTTTTTTTTTTTTTTTTTTTTTTTTTTTTTTTTTTTTTTTTTTTT
DNA 2: ACTGGCCGTCGTTTTACAACGTCGTGACTGGGAAAAC
As to B3, in the data set with Mcm4/6/7 complex [3], the binding result is given as “binds”.

B4: A-fork[3'] (mixed)
DNA 1: CGCATCGCCCACCTGCCTCTGGTGGAGGAGCTGCGTGCACTGAGGCAGTTGCACCTGAACCAGCTGATCCGTGCCGCTGGCGTGGTGGCCGCCTGCGCCGGAGTC
DNA 2: GGGTGAACCTGCAGGTGGGCAAAGATGTCCTAGCAAGGCACTGGTAGAATGGTGCAACTGCCTCAGTGCACGCAGCTCCTCCACCAGAGGCAGGTGGGCGATGCG
DNA 3: GACTCCGGCGCAGGCGGCCACCACGCCAGCGGCACGGATCAGCTGGTTCA
In the case of B4, the binding result with Mcm4/6/7 complex [4] is listed as “binds”.

B5: A-fork[5'] (mixed)
DNA 1: B4 DNA 1
DNA 2: B4 DNA 2
DNA 3: ATTCTACCAGTGCCTTGCTAGGACATCTTTGCCCACCTGCAGGTTCACCC
Regarding B5, in the data set with Mcm4/6/7 complex [4], the binding result is “binds”.

B6: Bub-T40 (mixed)
DNA 1: GTTTTCCCAGTCACGACGTTGTAAAACGACTTTTTTTTTTTTTTTTTTTTTTTTTTTTTTTTTTTTTTTTTACCGAGCTCGAATTCGTAATCATGGTCAT
DNA 2: ATGACCATGATTACGAATTCGAGCTCGGTATTTTTTTTTTTTTTTTTTTTTTTTTTTTTTTTTTTTTTTTGTCGTTTTACAACGTCGTGACTGGGAAAAC
Consider B6, for which the binding result with Mcm4/6/7 complex [2] was “binds”.

B7: Bub-T30 (mixed)
DNA 1: GTTTTCCCAGTCACGACGTTGTAAAACGACTTTTTTTTTTTTTTTTTTTTTTTTTTTTTTTACCGAGCTCGAATTCGTAATCATGGTCAT
DNA 2: ATGACCATGATTACGAATTCGAGCTCGGTATTTTTTTTTTTTTTTTTTTTTTTTTTTTTTGTCGTTTTACAACGTCGTGACTGGGAAAAC
As for B7, the binding result with Mcm4/6/7 complex [5] was “binds”.
